Reference: article PMC9645375 (Chemical Science, 2022)

Target: HDM2 (human double minute 2) protein (human, UniProt Q00987 1-491)
Assay: fluorescence polarisation
Details: both partners purified

Sequence of HDM2 (human double minute 2) protein (Q00987 whole entry): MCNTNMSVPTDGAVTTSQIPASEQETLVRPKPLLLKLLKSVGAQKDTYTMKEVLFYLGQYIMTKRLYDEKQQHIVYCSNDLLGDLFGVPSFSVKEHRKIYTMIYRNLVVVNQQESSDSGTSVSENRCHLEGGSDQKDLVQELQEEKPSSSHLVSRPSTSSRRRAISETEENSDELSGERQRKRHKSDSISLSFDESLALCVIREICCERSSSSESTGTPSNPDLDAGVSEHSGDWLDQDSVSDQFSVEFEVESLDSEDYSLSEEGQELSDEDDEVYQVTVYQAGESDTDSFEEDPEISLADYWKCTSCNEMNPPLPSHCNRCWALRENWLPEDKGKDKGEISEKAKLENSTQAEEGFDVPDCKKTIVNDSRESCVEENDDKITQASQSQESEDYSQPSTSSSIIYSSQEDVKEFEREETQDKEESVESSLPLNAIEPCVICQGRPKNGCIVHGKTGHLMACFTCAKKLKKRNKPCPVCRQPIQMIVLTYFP

Binder: PCFYDYWQCL (not fully specified; stapled (the two Cys residues at i and i+7 cross-linked), source: synthetic peptide) [stapled HDM2-opt peptide]
- IC50: 6.9 ± 1.9 µM
